Numbering of substitutions follows the chain as printed.

The labels stand for the following.
B1: antibody 34 (antibody, V domains shown)
VH: QVTLKESGPGILQPSQTLSLTCSFSGFSLSTFSLGVGWIRQSSGKGLEWLAHIWWDDEKYYNPALKSRLTISKDTSKNQVFLKIANVDAADTATYYCARAYYSKSYYALDYWGQGTSVTVSS
VL: DIQMTQSPSSLSASLGERVSLTCRASQEISGYLSWLQQKPDGTIKRLIYAASTLDSGVPKRFSGSRSGSDYSLAISSLESEDFADYYCLQYANFPFTFGSGTKLEIK
notes: Mouse IgG, kappa light chain; also called clone #34; m34
B2: antibody 16 (antibody, V domains shown)
VH: QVTLKESGPGILQPSQTLSLTCSFSGFSLSTFALGVGWIRQPSGRGLEWLAHIWWDDDKYYNPALKSRLTISKDTSKNHVFLKIANVDTADTATYYCARITTYYYGMDYWGQGTSVTVSS
VL: DIVLSQSPATLSVTPGDSVSLFCRASQSIGNHLHWYQQESHASPRLLIKYASQSISGIPSRFSGSGSGTDFTLSINSVETEDFGMYFCQQSYNWPLTFGAGTKLELK
notes: Mouse IgG, kappa light chain; also called clone #16; m16
B3: antibody 3 (antibody, V domains shown)
VH: QVTLKESGPGILQPSQTLSLTCSFSGFSLTTFAMGIGWVRQPSGKGLEWLAHIWWDGEKYNNPVLKSRLTISKDTSKNQVFLRIANVDTPDTATYYCARISSIYYIIDNWGQGTSVTVSS
VL: B2 VL with S5T, D17H, F22S, G30S, H32N, Q38K, E39K, A42E, A51V
notes: Mouse IgG, kappa light chain; also called clone #3; purified antibody 3
B4: antibody 48 (antibody, V domains shown)
VH: QVQLQQSGTELVRPGTSVKVSCKASGYAFTNYLIEWVKQRPGQGLEWIGVINPGSGFTKYNEKFKGKATLTADKSSSTVYMHLSSLTSEDSAVYFCARGLYRAMDYWGQGTSVTVSS
VL: DIQMTQSPASQSASLGESVTITCLASQTIATWLAWYQQKPGKSPQLLIYGATTLADGVPSRFSGGGSGTKFSFKISSLQAEDFVSYYCQQLYSTPYTFGGGTKLEIK
notes: Mouse IgG, kappa light chain; also called clone #48; purified antibody 48
B5: antibody 50 (antibody, V domains shown)
VH: B4 VH with T9A, T16A, T30S, V79A, H82Q
VL: B4 VL with A30G, G50A, T52A, T53S, S85N, L91I
notes: Mouse IgG, kappa light chain; also called clone #50; purified antibody 50
B6: antibody 43 (antibody, V domains shown)
VH: QVALKESGPGILQPSQTLSLTCSFSGFSLSTFGMGVGWIRQSSGKGLEWLANIWWDDDKYYNPALKSRLTISKDASKNQAFLKIANVDTADTATYYCARIGNYGSNYWYFDVWGTGTTVTVSS
VL: QIVLTQSPAIMSASPGERVTMTCSANSRISYMYWYQQKPGSSPRLLIYDTSNLASGVPVRFSGSGSGTSYSLTISRMEAEDAATYNCQQWSSYPLTFGAGTKLELK
notes: Mouse IgG, kappa light chain; also called clone #43
B7: antibody 5 (antibody, V domains shown)
VH: B6 VH with A3T, S42P, N52H, D58E, P63S, D74A, A75T, G101S, D111N
VL: QVVLTQSPALMSASPGEKVTMTCSAGSSVSCMYWYQQKPGSSPRVLIYDTSNLASGVPARFTGSGSGTSYSLTISRMEAEDAASYYCQQWNSYPLTFGAGTKLELK
notes: Mouse IgG, kappa light chain; also called clone #5; purified antibody 5
B8: antibody 42 (antibody, V domains shown)
VH: B6 VH with A3T, F24L, M34R, S42P, N52H, D58E, A75T, A80V, K83R, G101Q
VL: B6 VL with Q1L, R18K, S24G, N26T, Y33F, L45V, M77V, A82V, N86Y, S91N
notes: Mouse IgG, kappa light chain; also called clone #42; m42
B9: antibody 44 (antibody, V domains shown)
VH: B6 VH with A3T, S42P, G44E, N52H, A75T, A80I, A85T, D91E, A98S
VL: QIVLTQSPAVMSASPGEKVTMTCTASSSVYYMYWYQQTPGSSPRLLIYDTSNLASGVPVRFSGSGSGTSYSLTISRMEAEDAATYYCQQWNTYPLTFGAGTKLELK
notes: Mouse IgG, kappa light chain; also called clone #44; m44
B10: antibody 22 (antibody, V domains shown)
VH: B6 VH with A3T, S42P, N52H, D58E, P63S, D74A, A75T, A80V, G101S, D111N
VL: B7 VL with C31Y, S84T
notes: Mouse IgG, kappa light chain; also called clone #22; m22

The assay has as its target T1, human iRhom2 (inactive rhomboid protein 2, isoform 1), endogenously expressed on human cells (human, UniProt Q6PJF5 1-856).
T1 construct: also called RHBDF2; NP_078875.4
T1 sequence: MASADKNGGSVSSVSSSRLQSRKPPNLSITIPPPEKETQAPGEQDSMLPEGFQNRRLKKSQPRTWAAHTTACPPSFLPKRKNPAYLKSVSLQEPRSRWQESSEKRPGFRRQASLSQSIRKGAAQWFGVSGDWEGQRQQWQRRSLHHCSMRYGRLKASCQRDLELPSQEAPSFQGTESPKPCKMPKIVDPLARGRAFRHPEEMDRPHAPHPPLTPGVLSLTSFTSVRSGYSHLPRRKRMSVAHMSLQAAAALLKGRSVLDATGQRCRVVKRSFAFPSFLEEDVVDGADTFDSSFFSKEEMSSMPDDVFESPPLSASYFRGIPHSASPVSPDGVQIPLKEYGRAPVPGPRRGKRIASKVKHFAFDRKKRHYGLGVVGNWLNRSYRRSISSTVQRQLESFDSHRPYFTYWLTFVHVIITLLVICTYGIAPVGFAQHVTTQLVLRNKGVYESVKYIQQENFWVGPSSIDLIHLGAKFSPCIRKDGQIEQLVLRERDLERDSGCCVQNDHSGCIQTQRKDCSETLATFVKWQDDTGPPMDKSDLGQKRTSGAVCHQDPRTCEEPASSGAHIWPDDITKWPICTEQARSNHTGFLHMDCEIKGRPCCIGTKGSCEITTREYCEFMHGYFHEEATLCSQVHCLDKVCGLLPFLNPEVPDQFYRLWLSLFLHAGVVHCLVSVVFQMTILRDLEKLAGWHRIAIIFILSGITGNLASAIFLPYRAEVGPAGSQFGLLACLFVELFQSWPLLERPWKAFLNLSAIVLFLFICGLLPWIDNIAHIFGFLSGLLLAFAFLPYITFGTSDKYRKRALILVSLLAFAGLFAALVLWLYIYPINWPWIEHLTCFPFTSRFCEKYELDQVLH
Briefly: indirect FACS scatchard analysis on THP-1 cells (endogenous iRhom2). How it is done: In brief, human THP-1 cells (American Type Culture Collection, USA) were harvested with 10 mM EDTA in PBS, washed and resuspended in FACS buffer (PBS, 3% FBS, 0.05% sodium azide), and seeded in Nunc U-bottom 96-well plates (Thermo Fisher Scientific, USA) at approximately 3×10⁵ cells per well. In order to pellet cells and remove supernatants, the plates were centrifuged at 1,500 rpm and 4° C. for 3 minutes. For primary staining, cells were resuspended in 100 μl per well of either FACS buffer alone (controls) or serial two-fold dilutions (in total 22 concentrations) of the purified antibodies 3, 5, 16, 22, 34, 42, 43, 44, 48, and 50 of the present disclosure in FACS buffer starting at 40 μg/ml and incubated on ice for 1 hour. Afterwards, plates were centrifuged at 1,500 rpm and 4° C. for 3 minutes and washed twice with 200 μl per well of FACS buffer. For secondary staining, cells were spun down and resuspended in 100 μl per well of PE-conjugated goat anti-mouse IgG F(ab′)2 detection fragment (Dianova, Germany) diluted 1:100 in FACS buffer. Protected from light, the cell suspensions were incubated on ice for 1 hour. Plates were then centrifuged at 1,500 rpm and 4° C. for 3 minutes and washed three times with 200 μl per well of FACS buffer. Finally, cells were resuspended in 150 μl per well of FACS buffer and analyzed using a BD Accuri™ C6 Plus flow cytometer (Becton Dickinson, Germany). Applying Prism8 software (GraphPad Sowtware, USA), the respective KD value for each of the antibodies of the present disclosure were calculated.
A word on the Kd: it is the constant that tells how readily two partners part at equilibrium. High values mean a looser complex, low ones a tighter complex. For B1, the affinity, expressed as Kd, was 1.94 nM.

In turn, B2 yielded a Kd of 0.34 nM. Consider B3, for which the Kd is 2.97 nM.

Molecule B4 had a Kd of 1.73 nM. The result for B5 reads 1.43 nM; that for B6, 4.55 nM. With B7 the figure was 3.35 nM.

Turning to B8, binding was put at a Kd of 1.9 nM. The molecule B9 had a Kd of 0.44 nM. The molecule B10 had a Kd of 2.04 nM.

The values are drawn from patent US20240174744A1 (SCIRHOM, published 2024).
